Results on 1 protein are retold here after paper doi:10.1101/2025.03.19.644215 (bioRxiv, 2025).

This data set concerns the molecule itself. The data set can be described thus: cryo-EM structure; Dmc1 2.5 uM with 0.125 uM 96-mer ssDNA in HR buffer with 1.5 mM CaCl2 and 5 mM ADP, 30°C 5 min, then 8 mM CHAPSO; helical filament in the ADP-bound state (interdigitated filaments masked to a single filament); filament formation required the ssDNA.

B1: S. cerevisiae Dmc1 (natural protein)
chain: MSVTGTEIDSDTAKNILSVDELQNYGINASDLQKLKSGGIYTVNTVLSTTRRHLCKIKGLSEVKVEKIKEAAGKIIQVGFIPATVQLDIRQRVYSLSTGSKQLDSILGGGIMTMSITEVFGEFRCGKTQMSHTLCVTTQLPREMGGGEGKVAYIDTEGTFRPERIKQIAEGYELDPESCLANVSYARALNSEHQMELVEQLGEELSSGDYRLIVVDSIMANFRVDYCGRGELSERQQKLNQHLFKLNRLAEEFNVAVFLTNQVQSDPGASALFASADGRKPIGGHVLAHASATRILLRKGRGDERVAKLQDSPDMPEKECVYVIGEKGITDSSD
notes: Dmc1 meiotic recombinase, Saccharomyces cerevisiae; expressed from a plasmid encoding 6XHisDmc1; Stood in the assay as a helical filament of many protomers, assembled with a 96-nt ssDNA, ADP, Mg2+ and Ca2+; no removal of the His tag is described; also called Dmc1-ADP; source: E. coli BL21 (DE3) Rosetta2, purified (Talon resin, heparin sepharose)
For the protein B1, the binding result is listed as “binds”.
